Source: the MegaScale stability set (Tsuboyama et al. 2023)

B1: EEHEE_rd4_0363 (parent)
chain: VTVDIKGMEYHFDNPEEAKKFAERMAKELGGELKVENGTLKVE

Variants of: B1
Assay: folding stability dG (cDNA display proteolysis); higher = more stable
Details: PBS, room temperature

Variant	folding stability dG
VTVDIKGMEYHFDNPEEAKKFAERMAKELGGELKRENGTLKVE [V35R]	1.25 kcal/mol
VTVDIKGMEYHFDNPEEAKKFAERMAKELGGELKFENGTLKVE [V35F]	2.38 kcal/mol
VTVDIKGMEYHFDNPEEAKKFAERMAKELGGELKQENGTLKVE [V35Q]	1.62 kcal/mol
VTVDIKGMEYHFDNPEEAKKFAERMAKELGGELKTENGTLKVE [V35T]	1.72 kcal/mol
VTVDIKGMEYHFDNPEEAKKFAERMAKELGGELKPENGTLKVE [V35P]	0.972 kcal/mol
VTVDIKGMEYHFDNPEEAKKFAERMAKELGGELKHENGTLKVE [V35H]	1.57 kcal/mol
VTVDIKGMEYHFDNPEEAKKFAERMAKELGGELKEENGTLKVE [V35E]	1.96 kcal/mol
VTVDIKGMEYHFDNPEEAKKFAERMAKELGGELKMENGTLKVE [V35M]	2 kcal/mol
VTVDIKGMEYHFDNPEEAKKFAERMAKELGGELKYENGTLKVE [V35Y]	2.48 kcal/mol
VTVDIKGMEYHFDNPEEAKKFAERMAKELGGELKAENGTLKVE [V35A]	1.53 kcal/mol
VTVDIKGMEYHFDNPEEAKKFAERMAKELGGELKNENGTLKVE [V35N]	1.73 kcal/mol
VTVDIKGMEYHFDNPEEAKKFAERMAKELGGELKLENGTLKVE [V35L]	1.93 kcal/mol
VTVDIKGMEYHFDNPEEAKKFAERMAKELGGELKWENGTLKVE [V35W]	3.09 kcal/mol
VTVDIKGMEYHFDNPEEAKKFAERMAKELGGELKGENGTLKVE [V35G]	1.2 kcal/mol
VTVDIKGMEYHFDNPEEAKKFAERMAKELGGELKKENGTLKVE [V35K]	1.3 kcal/mol
VTVDIKGMEYHFDNPEEAKKFAERMAKELGGELKCENGTLKVE [V35C]	2.78 kcal/mol
VTVDIKGMEYHFDNPEEAKKFAERMAKELGGELKSENGTLKVE [V35S]	1.61 kcal/mol
VTVDIKGMEYHFDNPEEAKKFAERMAKELGGELKIENGTLKVE [V35I]	2.27 kcal/mol
VTVDIKGMEYHFDNPEEAKKFAERMAKELGGELKDENGTLKVE [V35D]	1.59 kcal/mol
VTVDIKGMEYHFDNPEEAKKFAERMAKELGGEFKVENGTLKVE [L33F]	1.47 kcal/mol
VTVDIKGMEYHFDNPEEAKKFAERMAKELGGEAKVENGTLKVE [L33A]	1.07 kcal/mol
VTVDIKGMEYHFDNPEEAKKFAERMAKELGGETKVENGTLKVE [L33T]	1.13 kcal/mol
VTVDIKGMEYHFDNPEEAKKFAERMAKELGGERKVENGTLKVE [L33R]	0.462 kcal/mol
VTVDIKGMEYHFDNPEEAKKFAERMAKELGGEIKVENGTLKVE [L33I]	2.48 kcal/mol

Variant	folding stability dG
VTVDIKGMEYHFDNPEEAKKFAERMAKELGGEPKVENGTLKVE [L33P]	0.732 kcal/mol
VTVDIKGMEYHFDNPEEAKKFAERMAKELGGEDKVENGTLKVE [L33D]	0.762 kcal/mol
VTVDIKGMEYHFDNPEEAKKFAERMAKELGGENKVENGTLKVE [L33N]	0.799 kcal/mol
VTVDIKGMEYHFDNPEEAKKFAERMAKELGGEEKVENGTLKVE [L33E]	0.789 kcal/mol
VTVDIKGMEYHFDNPEEAKKFAERMAKELGGESKVENGTLKVE [L33S]	0.81 kcal/mol
VTVDIKGMEYHFDNPEEAKKFAERMAKELGGEKKVENGTLKVE [L33K]	0.659 kcal/mol
VTVDIKGMEYHFDNPEEAKKFAERMAKELGGEYKVENGTLKVE [L33Y]	1.43 kcal/mol
VTVDIKGMEYHFDNPEEAKKFAERMAKELGGEVKVENGTLKVE [L33V]	2.81 kcal/mol
VTVDIKGMEYHFDNPEEAKKFAERMAKELGGEHKVENGTLKVE [L33H]	0.949 kcal/mol
VTVDIKGMEYHFDNPEEAKKFAERMAKELGGEWKVENGTLKVE [L33W]	1.78 kcal/mol
VTVDIKGMEYHFDNPEEAKKFAERMAKELGGEGKVENGTLKVE [L33G]	0.82 kcal/mol
VTVDIKGMEYHFDNPEEAKKFAERMAKELGGEMKVENGTLKVE [L33M]	1.61 kcal/mol
VTVDIKGMEYHFDNPEEAKKFAERMAKELGGEQKVENGTLKVE [L33Q]	0.872 kcal/mol
VTVDIKGMEYHFDNPEEAKKFAERMAKELGGELLVENGTLKVE [K34L]	1.77 kcal/mol
VTVDIKGMEYHFDNPEEAKKFAERMAKELGGELWVENGTLKVE [K34W]	1.82 kcal/mol
VTVDIKGMEYHFDNPEEAKKFAERMAKELGGELHVENGTLKVE [K34H]	1.82 kcal/mol
VTVDIKGMEYHFDNPEEAKKFAERMAKELGGELIVENGTLKVE [K34I]	2.28 kcal/mol
VTVDIKGMEYHFDNPEEAKKFAERMAKELGGELAVENGTLKVE [K34A]	1.33 kcal/mol
VTVDIKGMEYHFDNPEEAKKFAERMAKELGGELPVENGTLKVE [K34P]	0.802 kcal/mol
VTVDIKGMEYHFDNPEEAKKFAERMAKELGGELNVENGTLKVE [K34N]	1.41 kcal/mol
VTVDIKGMEYHFDNPEEAKKFAERMAKELGGELTVENGTLKVE [K34T]	1.9 kcal/mol
VTVDIKGMEYHFDNPEEAKKFAERMAKELGGELSVENGTLKVE [K34S]	1.68 kcal/mol
VTVDIKGMEYHFDNPEEAKKFAERMAKELGGELYVENGTLKVE [K34Y]	1.98 kcal/mol
VTVDIKGMEYHFDNPEEAKKFAERMAKELGGELEVENGTLKVE [K34E]	1.02 kcal/mol

Variant	folding stability dG
VTVDIKGMEYHFDNPEEAKKFAERMAKELGGELRVENGTLKVE [K34R]	2.21 kcal/mol
VTVDIKGMEYHFDNPEEAKKFAERMAKELGGELCVENGTLKVE [K34C]	1.95 kcal/mol
VTVDIKGMEYHFDNPEEAKKFAERMAKELGGELVVENGTLKVE [K34V]	2.26 kcal/mol
VTVDIKGMEYHFDNPEEAKKFAERMAKELGGELMVENGTLKVE [K34M]	1.66 kcal/mol
VTVDIKGMEYHFDNPEEAKKFAERMAKELGGELQVENGTLKVE [K34Q]	1.42 kcal/mol
VTVDIKGMEYHFDNPEEAKKFAERMAKELGGELDVENGTLKVE [K34D]	1.01 kcal/mol
VTVDIKGMEYHFDNPEEAKKFAERMAKELGGELFVENGTLKVE [K34F]	2 kcal/mol
VTVDIKGMEYHFDNPEEAKKFAERMAKELGGELGVENGTLKVE [K34G]	1.03 kcal/mol
VTVDIKGMEYHFDNPEEAKKFAERMAKELRGELKVENGTLKVE [G30R]	1.6 kcal/mol
VTVDIKGMEYHFDNPEEAKKFAERMAKELTGELKVENGTLKVE [G30T]	1 kcal/mol
VTVDIKGMEYHFDNPEEAKKFAERMAKELYGELKVENGTLKVE [G30Y]	1.27 kcal/mol
VTVDIKGMEYHFDNPEEAKKFAERMAKELSGELKVENGTLKVE [G30S]	1.5 kcal/mol
VTVDIKGMEYHFDNPEEAKKFAERMAKELWGELKVENGTLKVE [G30W]	1.17 kcal/mol
VTVDIKGMEYHFDNPEEAKKFAERMAKELVGELKVENGTLKVE [G30V]	1.01 kcal/mol
VTVDIKGMEYHFDNPEEAKKFAERMAKELQGELKVENGTLKVE [G30Q]	1.57 kcal/mol
VTVDIKGMEYHFDNPEEAKKFAERMAKELGGELKVQNGTLKVE [E36Q]	1.89 kcal/mol
VTVDIKGMEYHFDNPEEAKKFAERMAKELGGELKVVNGTLKVE [E36V]	2.54 kcal/mol
VTVDIKGMEYHFDNPEEAKKFAERMAKELGGELKVMNGTLKVE [E36M]	1.84 kcal/mol
VTVDIKGMEYHFDNPEEAKKFAERMAKELGGELKVRNGTLKVE [E36R]	1.45 kcal/mol
VTVDIKGMEYHFDNPEEAKKFAERMAKELGGELKVKNGTLKVE [E36K]	1.4 kcal/mol
VTVDIKGMEYHFDNPEEAKKFAERMAKELGGELKVFNGTLKVE [E36F]	1.88 kcal/mol
VTVDIKGMEYHFDNPEEAKKFAERMAKELGGELKVLNGTLKVE [E36L]	2.02 kcal/mol
VTVDIKGMEYHFDNPEEAKKFAERMAKELGGELKVSNGTLKVE [E36S]	1.73 kcal/mol
VTVDIKGMEYHFDNPEEAKKFAERMAKELGGELKVCNGTLKVE [E36C]	2.26 kcal/mol

Variant	folding stability dG
VTVDIKGMEYHFDNPEEAKKFAERMAKELGGELKVHNGTLKVE [E36H]	1.83 kcal/mol
VTVDIKGMEYHFDNPEEAKKFAERMAKELGGELKVTNGTLKVE [E36T]	1.78 kcal/mol
VTVDIKGMEYHFDNPEEAKKFAERMAKELGGELKVINGTLKVE [E36I]	2.43 kcal/mol
VTVDIKGMEYHFDNPEEAKKFAERMAKELGGELKVANGTLKVE [E36A]	1.74 kcal/mol
VTVDIKGMEYHFDNPEEAKKFAERMAKELGGELKVDNGTLKVE [E36D]	1.77 kcal/mol
VTVDIKGMEYHFDNPEEAKKFAERMAKELGGELKVGNGTLKVE [E36G]	1.61 kcal/mol
VTVDIKGMEYHFDNPEEAKKFAERMAKELGGELKVPNGTLKVE [E36P]	0.792 kcal/mol
VTVDIKGMEYHFDNPEEAKKFAERMAKELGGELKVNNGTLKVE [E36N]	1.59 kcal/mol
VTVDIKGMEYHFDNPEEAKKFAERMAKELGNELKVENGTLKVE [G31N]	0.953 kcal/mol
VTVDIKGMEYHFDNPEEAKKFAERMAKELGKELKVENGTLKVE [G31K]	0.977 kcal/mol
VTVDIKGMEYHFDNPEEAKKFAERMAKELGRELKVENGTLKVE [G31R]	0.865 kcal/mol
VTVDIKGMEYHFDNPEEAKKFAERMAKELGWELKVENGTLKVE [G31W]	2.33 kcal/mol
VTVDIKGMEYHFDNPEEAKKFAERMAKELGCELKVENGTLKVE [G31C]	2.36 kcal/mol
VTVDIKGMEYHFDNPEEAKKFAERMAKELGYELKVENGTLKVE [G31Y]	2.12 kcal/mol
VTVDIKGMEYHFDNPEEAKKFAERMAKELGDELKVENGTLKVE [G31D]	0.935 kcal/mol
VTVDIKGMEYHFDNPEEAKKFAERMAKELGMELKVENGTLKVE [G31M]	2.32 kcal/mol
VTVDIKGMEYHFDNPEEAKKFAERMAKELGHELKVENGTLKVE [G31H]	1.27 kcal/mol
VTVDIKGMEYHFDNPEEAKKFAERMAKELGQELKVENGTLKVE [G31Q]	1.32 kcal/mol
VTVDIKGMEYHFDNPEEAKKFAERMAKELGEELKVENGTLKVE [G31E]	1.23 kcal/mol
VTVDIKGMEYHFDNPEEAKKFAERMAKELGTELKVENGTLKVE [G31T]	1.38 kcal/mol
VTVDIKGMEYHFDNPEEAKKFAERMAKELGLELKVENGTLKVE [G31L]	2.57 kcal/mol
VTVDIKGMEYHFDNPEEAKKFAERMAKELGSELKVENGTLKVE [G31S]	1.39 kcal/mol
VTVDIKGMEYHFDNPEEAKKFAERMAKELGAELKVENGTLKVE [G31A]	2.15 kcal/mol
VTVDIKGMEYHFDNPEEAKKFAERMAKELGVELKVENGTLKVE [G31V]	1.85 kcal/mol

Variant	folding stability dG
VTVDIKGMEYHFDNPEEAKKFAERMAKELGPELKVENGTLKVE [G31P]	0.726 kcal/mol
VTVDIKGMEYHFDNPEEAKKFAERMAKELGIELKVENGTLKVE [G31I]	1.88 kcal/mol
VTVDIKGMEYHFDNPEEAKKFAERMAKELGFELKVENGTLKVE [G31F]	2.03 kcal/mol
VTVDIKGMEYHFDNPEEAKKFAERMAKELGGALKVENGTLKVE [E32A]	2.15 kcal/mol
VTVDIKGMEYHFDNPEEAKKFAERMAKELGGCLKVENGTLKVE [E32C]	2.56 kcal/mol
VTVDIKGMEYHFDNPEEAKKFAERMAKELGGHLKVENGTLKVE [E32H]	2.45 kcal/mol
VTVDIKGMEYHFDNPEEAKKFAERMAKELGGMLKVENGTLKVE [E32M]	2.31 kcal/mol
VTVDIKGMEYHFDNPEEAKKFAERMAKELGGWLKVENGTLKVE [E32W]	2.97 kcal/mol
VTVDIKGMEYHFDNPEEAKKFAERMAKELGGGLKVENGTLKVE [E32G]	1.4 kcal/mol
VTVDIKGMEYHFDNPEEAKKFAERMAKELGGLLKVENGTLKVE [E32L]	2.32 kcal/mol
VTVDIKGMEYHFDNPEEAKKFAERMAKELGGPLKVENGTLKVE [E32P]	0.989 kcal/mol
VTVDIKGMEYHFDNPEEAKKFAERMAKELGGFLKVENGTLKVE [E32F]	2.82 kcal/mol
VTVDIKGMEYHFDNPEEAKKFAERMAKELGGNLKVENGTLKVE [E32N]	2.21 kcal/mol
VTVDIKGMEYHFDNPEEAKKFAERMAKELGGKLKVENGTLKVE [E32K]	2.43 kcal/mol
VTVDIKGMEYHFDNPEEAKKFAERMAKELGGVLKVENGTLKVE [E32V]	2.84 kcal/mol
VTVDIKGMEYHFDNPEEAKKFAERMAKELGGDLKVENGTLKVE [E32D]	1.67 kcal/mol
VTVDIKGMEYHFDNPEEAKKFAERMAKELGGILKVENGTLKVE [E32I]	2.89 kcal/mol
VTVDIKGMEYHFDNPEEAKKFAERMAKELGGRLKVENGTLKVE [E32R]	2.23 kcal/mol
VTVDIKGMEYHFDNPEEAKKFAERMAKELGGSLKVENGTLKVE [E32S]	2.48 kcal/mol
VTVDIKGMEYHFDNPEEAKKFAERMAKELGGQLKVENGTLKVE [E32Q]	2.41 kcal/mol
VTVDIKGMEYHFDNPEEAKKFAERMAKELGGTLKVENGTLKVE [E32T]	2.81 kcal/mol
VTVDIKGMEYHFDNPEEAKKFAERMAKELGGYLKVENGTLKVE [E32Y]	2.96 kcal/mol
